Experimental data from article PMC12732243.

Target: human FSH receptor (human) (UniProt P23945)
Sequence (P23945 18-695): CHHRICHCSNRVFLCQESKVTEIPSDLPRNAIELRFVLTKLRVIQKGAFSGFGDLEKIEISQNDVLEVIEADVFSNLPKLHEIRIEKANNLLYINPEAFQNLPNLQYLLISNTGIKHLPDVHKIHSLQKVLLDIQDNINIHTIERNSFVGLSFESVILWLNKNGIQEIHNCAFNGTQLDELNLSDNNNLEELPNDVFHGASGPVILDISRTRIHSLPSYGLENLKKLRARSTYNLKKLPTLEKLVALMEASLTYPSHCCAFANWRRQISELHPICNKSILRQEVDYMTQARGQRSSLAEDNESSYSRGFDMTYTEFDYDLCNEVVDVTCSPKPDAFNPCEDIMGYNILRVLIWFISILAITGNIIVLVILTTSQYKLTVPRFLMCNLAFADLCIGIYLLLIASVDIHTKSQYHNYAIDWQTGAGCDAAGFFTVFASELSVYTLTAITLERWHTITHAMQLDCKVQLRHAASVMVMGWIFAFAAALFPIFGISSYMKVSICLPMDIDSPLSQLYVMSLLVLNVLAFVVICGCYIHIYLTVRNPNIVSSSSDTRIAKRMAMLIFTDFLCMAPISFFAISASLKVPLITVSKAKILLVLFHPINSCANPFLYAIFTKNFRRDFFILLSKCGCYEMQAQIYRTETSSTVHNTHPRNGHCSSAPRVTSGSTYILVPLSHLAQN

recombinant monkey single-chain FSHβ/α (from UniProt Q6EV79 19-129; Q9BEH3 25-120) (ligand)
cAMP accumulation (HTRF) in HEK 293 cells expressing hFSHR, 30 min at room temperature with 0.5 mM IBMX; EC50 of the dose-response curve: 4.9 µL/mL
